Test results: paper PMC5371818, “Suppression of FOXM1 Transcriptional Activities via a Single-Stranded DNA Aptamer Generated by SELEX”

Legend:
His-FOXM1 full-length = target: T1, His-FOXM1 full-length (UniProt Q08050 1-763); experiment: fluorescence polarization; EMSA and FP: 20 mM Tris-Cl, 50 mM KCl, 10% glycerol, 0.5 mM EDTA, 0.2 mM DTT, pH 7.6, 30 min on ice; EMSA 50 nM probe, FP 10 nM probe (50 nM in Fig. 1D legend); conditions: protein: recombinant, tags: C-terminal His6 (encoded by reverse primer S6)
T1 sequence: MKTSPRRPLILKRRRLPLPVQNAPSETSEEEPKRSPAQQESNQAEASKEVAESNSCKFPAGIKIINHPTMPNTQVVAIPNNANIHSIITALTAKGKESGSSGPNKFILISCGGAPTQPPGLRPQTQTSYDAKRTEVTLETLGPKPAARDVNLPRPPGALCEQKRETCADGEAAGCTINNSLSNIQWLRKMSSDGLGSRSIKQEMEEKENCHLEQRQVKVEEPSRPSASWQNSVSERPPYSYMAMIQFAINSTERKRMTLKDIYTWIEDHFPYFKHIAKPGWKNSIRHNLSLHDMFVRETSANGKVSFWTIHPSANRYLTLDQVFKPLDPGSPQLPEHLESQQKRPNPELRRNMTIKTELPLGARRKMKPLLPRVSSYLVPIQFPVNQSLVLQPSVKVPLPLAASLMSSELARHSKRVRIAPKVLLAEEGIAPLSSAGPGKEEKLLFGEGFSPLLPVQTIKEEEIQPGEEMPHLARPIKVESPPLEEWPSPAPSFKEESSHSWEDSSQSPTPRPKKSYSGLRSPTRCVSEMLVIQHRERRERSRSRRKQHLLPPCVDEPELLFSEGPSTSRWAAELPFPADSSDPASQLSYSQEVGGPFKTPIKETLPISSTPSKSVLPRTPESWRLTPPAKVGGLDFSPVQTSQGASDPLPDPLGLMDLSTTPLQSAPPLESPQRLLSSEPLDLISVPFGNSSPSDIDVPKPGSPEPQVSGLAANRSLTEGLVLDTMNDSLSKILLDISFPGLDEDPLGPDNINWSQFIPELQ

GST-FOXM1 DBD [1] = target: T2, GST-FOXM1 DBD (UniProt Q08050 225-355); experiment: as above; conditions: protein: recombinant, tags: N-terminal GST (pGEX-4T-1)
T2 sequence: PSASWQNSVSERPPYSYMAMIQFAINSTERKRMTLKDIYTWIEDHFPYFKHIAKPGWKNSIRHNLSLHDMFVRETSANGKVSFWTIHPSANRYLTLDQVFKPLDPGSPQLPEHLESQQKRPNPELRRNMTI

GST-FOXM1 DBD [2] = target: T2, GST-FOXM1 DBD; experiment: EMSA; EMSA and FP: 20 mM Tris-Cl, 50 mM KCl, 10% glycerol, 0.5 mM EDTA, 0.2 mM DTT, pH 7.6, 30 min on ice; EMSA 50 nM probe, FP 10 nM probe (50 nM in Fig. 1D legend); conditions: protein: recombinant; tags: N-terminal GST (pGEX-4T-1); label: 5'-ROX
[3] = label: 5'-FAM on forward strand (hot) or none (cold), blunt
[4] = label: 5'-ROX (hot) or none (cold)

B1: FOXM1 dsDNA probe (dsDNA)
DNA 1: TTTGTTTATTTGTTTGTTTATTTG
DNA 2: CAAATAAACAAACAAATAAACAAA
Work on B1 yielded a Kd (His-FOXM1 full-length; [3]) of 214 ± 249 nM and a Kd (GST-FOXM1 DBD [1]; [3]) of 543 ± 148 nM.

B2: FOXM1 Apt (C1) (ssDNA)
DNA: TCACTTCACACCGCATCTCTACGTCCGGTTGCGCTTTCCTTT
With B2 the Kd (His-FOXM1 full-length; [4]) was 172 ± 26.6 nM and the Kd (GST-FOXM1 DBD [1]; [4]) was 64.8 ± 25.8 nM.

B3: M-FOXM1 Apt (ssDNA)
DNA: TCACTTCACACCGCATCTCTACGTCCGGTTGCGCTTTCCTTT
modifications: phosphorothioate internucleotide linkages
Work on B3 yielded a Kd (His-FOXM1 full-length) of 63.9 ± 6.6 nM.

B4: Control Apt (ssDNA)
DNA: TCACTTAAAAAAAAAAAACTCATGAAAAAAAAAAAATCCTTT
B4: no binding (GST-FOXM1 DBD [2]).
